Experimental data as given in article PMC4658161, “Mutually Exclusive Roles of SHARPIN in Integrin Inactivation and NF-κB Signaling” (PLoS ONE, 2015).
Changes are numbered by the printed parent chain. One block for each binder: values may come before it.

Molecular target: T1, recombinant full-length human ITGAL-ITGB2 (human, UniProt P20701 26-1170; P05107 23-769)
T1 construct: integrin alpha L (ITGAL), human, full-length; integrin beta 2 (ITGB2), human, full-length; also called full-length ITGAL-ITGB2; LFA-1; source: bought: Origene
T1 sequence (P20701 26-1170, chain 1 of 2): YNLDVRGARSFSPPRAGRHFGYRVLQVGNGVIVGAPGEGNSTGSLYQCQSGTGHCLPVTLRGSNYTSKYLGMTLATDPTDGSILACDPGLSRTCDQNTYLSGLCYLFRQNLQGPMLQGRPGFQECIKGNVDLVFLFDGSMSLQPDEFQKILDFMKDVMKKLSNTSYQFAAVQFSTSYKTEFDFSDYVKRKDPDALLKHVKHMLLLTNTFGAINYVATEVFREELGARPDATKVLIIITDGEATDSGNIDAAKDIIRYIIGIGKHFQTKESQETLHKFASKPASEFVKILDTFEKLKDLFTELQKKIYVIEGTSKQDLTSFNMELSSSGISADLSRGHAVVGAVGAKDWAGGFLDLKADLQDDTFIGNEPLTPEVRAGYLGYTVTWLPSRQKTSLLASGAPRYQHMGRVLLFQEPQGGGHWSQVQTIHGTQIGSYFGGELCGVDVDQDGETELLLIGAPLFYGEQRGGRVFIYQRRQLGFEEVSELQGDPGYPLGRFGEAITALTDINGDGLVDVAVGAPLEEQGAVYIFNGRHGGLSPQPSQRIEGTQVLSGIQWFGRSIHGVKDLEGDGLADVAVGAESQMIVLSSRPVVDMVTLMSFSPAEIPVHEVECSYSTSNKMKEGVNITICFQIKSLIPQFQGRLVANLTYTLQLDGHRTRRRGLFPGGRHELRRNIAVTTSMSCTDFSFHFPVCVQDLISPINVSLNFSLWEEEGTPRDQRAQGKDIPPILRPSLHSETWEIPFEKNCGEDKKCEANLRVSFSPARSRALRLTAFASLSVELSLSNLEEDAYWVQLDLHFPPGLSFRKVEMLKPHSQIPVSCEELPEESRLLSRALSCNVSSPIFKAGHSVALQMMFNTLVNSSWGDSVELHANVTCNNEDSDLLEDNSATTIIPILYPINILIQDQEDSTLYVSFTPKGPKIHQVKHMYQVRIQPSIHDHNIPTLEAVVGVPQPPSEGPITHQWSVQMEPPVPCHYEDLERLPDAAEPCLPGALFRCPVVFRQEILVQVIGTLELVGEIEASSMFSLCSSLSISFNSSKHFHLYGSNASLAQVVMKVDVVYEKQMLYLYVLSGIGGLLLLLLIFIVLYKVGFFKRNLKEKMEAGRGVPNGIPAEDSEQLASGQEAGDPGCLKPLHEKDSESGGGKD
T1 sequence (P05107 23-769, chain 2 of 2): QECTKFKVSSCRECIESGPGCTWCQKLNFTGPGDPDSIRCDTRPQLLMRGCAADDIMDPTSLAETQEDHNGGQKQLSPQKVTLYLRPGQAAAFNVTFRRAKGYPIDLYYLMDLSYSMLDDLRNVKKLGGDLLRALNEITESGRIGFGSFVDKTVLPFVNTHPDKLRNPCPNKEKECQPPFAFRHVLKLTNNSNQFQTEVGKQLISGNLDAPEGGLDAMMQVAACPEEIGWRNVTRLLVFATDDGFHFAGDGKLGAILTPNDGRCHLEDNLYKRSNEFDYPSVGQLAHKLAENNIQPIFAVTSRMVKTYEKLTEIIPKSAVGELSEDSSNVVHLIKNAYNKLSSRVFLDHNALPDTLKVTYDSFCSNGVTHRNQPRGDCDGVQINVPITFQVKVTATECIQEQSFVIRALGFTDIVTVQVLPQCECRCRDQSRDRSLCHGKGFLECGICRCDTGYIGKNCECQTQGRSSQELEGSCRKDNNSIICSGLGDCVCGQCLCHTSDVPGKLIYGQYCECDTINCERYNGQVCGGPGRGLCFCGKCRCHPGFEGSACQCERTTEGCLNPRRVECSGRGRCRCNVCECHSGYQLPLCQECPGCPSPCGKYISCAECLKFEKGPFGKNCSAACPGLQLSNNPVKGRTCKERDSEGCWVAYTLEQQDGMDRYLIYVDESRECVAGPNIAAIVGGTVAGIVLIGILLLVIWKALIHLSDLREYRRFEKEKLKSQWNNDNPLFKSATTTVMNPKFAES
Experiment: far-Western; GST-SHARPIN (WT, fragments or point mutants) with recombinant full-length ITGAL-ITGB2 or recombinant RNF31; which partner was on the membrane is not told; performed as described in ref. 5
Conditions: both partners purified

binding result: binds
B1: GST-SHARPIN^WT (natural protein, UniProt Q9H0F6 1-387, looked up)
chain: MAPPAGGAAAAASDLGSAAVLLAVHAAVRPLGAGPDAEAQLRRLQLSADPERPGRFRLELLGAGPGAVNLEWPLESVSYTIRGPTQHELQPPPGGPGTLSLHFLNPQEAQRWAVLVRGATVEGQNGSKSNSPPALGPEACPVSLPSPPEASTLKGPPPEADLPRSPGNLTEREELAGSLARAIAGGDEKGAAQVAAVLAQHRVALSVQLQEACFPPGPIRLQVTLEDAASAASAASSAHVALQVHPHCTVAALQEQVFSELGFPPAVQRWVIGRCLCVPERSLASYGVRQDGDPAFLYLLSAPREAPATGPSPQHPQKMDGELGRLFPPSLGLPPGPQPAASSLPSPLQPSWSCPSCTFINAPDRPGCEMCSTQRPCTWDPLAAAST
notes: also called GST-SHARPIN (full-length); source: E. coli strain Rosetta BL21DE3, purified

binding result: binds
B2: GST-SHARPIN^L276A (natural protein, UniProt Q9H0F6 1-387, looked up)
chain: B1 chain with L276A
notes: source: E. coli strain Rosetta BL21DE3, purified
